One test has as its system human PMNs. To be noted: PMN; data not shown.
The test system of a further test is monocytes. The note with it: PAR-1-dependent; ref [29]; cited from earlier work.
For the next test, the system named is PMN. To be noted: cited from earlier work.

We go through two molecules from publication PMC2978023 (Journal of immunology (Baltimore, Md. : 1950), 2008).

B1: plasmin (protein, UniProt P00747 20-580; P00747 581-810, looked up)
Plasmin heavy chain A: EPLDDYVNTQGASLFSVTKKQLGAGSIEECAAKCEEDEEFTCRAFQYHSKEQQCVIMAENRKSSIIIRMRDVVLFEKKVYLSECKTGNGKNYRGTMSKTKNGITCQKWSSTSPHRPRFSPATHPSEGLEENYCRNPDNDPQGPWCYTTDPEKRYDYCDILECEEECMHCSGENYDGKISKTMSGLECQAWDSQSPHAHGYIPSKFPNKNLKKNYCRNPDRELRPWCFTTDPNKRWELCDIPRCTTPPPSSGPTYQCLKGTGENYRGNVAVTVSGHTCQHWSAQTPHTHNRTPENFPCKNLDENYCRNPDGKRAPWCHTTNSQVRWEYCKIPSCDSSPVSTEQLAPTAPPELTPVVQDCYHGDGQSYRGTSSTTTTGKKCQSWSSMTPHRHQKTPENYPNAGLTMNYCRNPDADKGPWCFTTDPSVRWEYCNLKKCSGTEASVVAPPPVVLLPDVETPSEEDCMFGNGKGYRGKRATTVTGTPCQDWAAQEPHRHSIFTPETNPRAGLEKNYCRNPDGDVGGPWCYTTNPRKLYDYCDVPQCAAPSFDCGKPQVEPKKCPGR
Plasmin light chain B: VVGGCVAHPHSWPWQVSLRTRFGMHFCGGTLISPEWVLTAAHCLEKSPRPSSYKVILGAHQEVNLEPHVQEIEVSRLFLEPTRKDIALLKLSSPAVITDKVIPACLPSPNYVVADRTECFITGWGETQGTFGAGLLKEAQLPVIENKVCNRYEFLNGRVQSTELCAGHLAGGTDSCQGDSGGPLVCFEKDKYILQGVTSWGLGCARPNKPGVYVRVSRFVTWIEGVMRNN
modifications: Plasmin
Turning to B1, the “prosurvival/cytoprotective effect on PMN (in words)” value with human PMNs is recorded as “did not exert a cytoprotective function”. Also, in the test with monocytes, the “effect on TNF-α-induced apoptosis in monocytes” value is recorded as “inhibits TNF-α-induced apoptosis in monocytes”.

B2: Fas ligand: promotes PMN death via interaction with its receptor on the cell surface (protein, UniProt P48023 130-281, looked up)
Tumor necrosis factor ligand …: QIGHPSPPPEKKELRKVAHLTGKSNSRSMPLEWEDTYGIVLLSGVKYKKGGLVINETGLYFVYSKVYFRGQSCNNLPLSHKVYMRNSKYPQDLVMMEGKMMSYCTTGQMWARSSYLGAVFNLTSADHLYVNVSELSLVNFEESQTFFGLYKL
Consider B2, for which the “effect on PMN death” value in the test on PMN is “promote PMN death”.
